T1: AGS3 (Homo sapiens, UniProt Q86YR5)
T1 chain: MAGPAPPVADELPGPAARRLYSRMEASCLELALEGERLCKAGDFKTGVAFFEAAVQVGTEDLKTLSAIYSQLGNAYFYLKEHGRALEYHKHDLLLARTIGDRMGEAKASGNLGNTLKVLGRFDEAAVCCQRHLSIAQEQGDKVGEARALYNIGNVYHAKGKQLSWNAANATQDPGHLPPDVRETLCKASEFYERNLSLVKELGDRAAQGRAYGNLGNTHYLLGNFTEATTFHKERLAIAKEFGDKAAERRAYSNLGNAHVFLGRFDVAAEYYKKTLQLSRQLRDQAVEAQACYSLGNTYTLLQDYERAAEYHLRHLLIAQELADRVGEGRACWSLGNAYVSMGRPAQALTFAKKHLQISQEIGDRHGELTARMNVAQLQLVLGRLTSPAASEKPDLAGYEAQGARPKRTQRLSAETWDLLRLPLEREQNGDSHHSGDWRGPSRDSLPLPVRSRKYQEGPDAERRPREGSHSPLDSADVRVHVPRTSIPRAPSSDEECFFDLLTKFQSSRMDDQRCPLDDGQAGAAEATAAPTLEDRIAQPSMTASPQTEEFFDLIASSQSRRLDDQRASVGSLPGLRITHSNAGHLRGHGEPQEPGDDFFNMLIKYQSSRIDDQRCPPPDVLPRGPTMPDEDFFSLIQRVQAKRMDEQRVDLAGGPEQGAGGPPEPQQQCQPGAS

T2: LGN (Homo sapiens, UniProt P81274)
T2 chain: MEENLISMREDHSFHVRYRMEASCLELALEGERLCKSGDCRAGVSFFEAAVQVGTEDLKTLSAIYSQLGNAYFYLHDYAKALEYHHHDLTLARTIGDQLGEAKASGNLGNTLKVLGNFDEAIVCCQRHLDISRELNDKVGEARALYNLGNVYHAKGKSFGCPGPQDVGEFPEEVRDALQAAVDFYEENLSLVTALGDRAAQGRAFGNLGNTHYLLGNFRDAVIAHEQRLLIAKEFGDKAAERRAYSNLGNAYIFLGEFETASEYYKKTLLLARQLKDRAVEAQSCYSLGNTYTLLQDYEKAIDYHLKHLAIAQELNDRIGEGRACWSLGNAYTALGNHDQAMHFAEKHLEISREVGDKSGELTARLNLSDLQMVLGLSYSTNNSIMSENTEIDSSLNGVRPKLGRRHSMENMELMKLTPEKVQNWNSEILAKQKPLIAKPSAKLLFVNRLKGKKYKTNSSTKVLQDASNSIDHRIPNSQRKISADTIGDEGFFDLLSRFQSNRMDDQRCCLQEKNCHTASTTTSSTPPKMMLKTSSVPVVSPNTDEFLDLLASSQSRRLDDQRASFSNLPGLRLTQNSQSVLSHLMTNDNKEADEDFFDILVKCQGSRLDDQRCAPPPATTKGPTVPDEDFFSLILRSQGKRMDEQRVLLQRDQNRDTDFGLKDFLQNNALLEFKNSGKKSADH

T3: LGN-TPR (1–409) (mouse)
T3 chain: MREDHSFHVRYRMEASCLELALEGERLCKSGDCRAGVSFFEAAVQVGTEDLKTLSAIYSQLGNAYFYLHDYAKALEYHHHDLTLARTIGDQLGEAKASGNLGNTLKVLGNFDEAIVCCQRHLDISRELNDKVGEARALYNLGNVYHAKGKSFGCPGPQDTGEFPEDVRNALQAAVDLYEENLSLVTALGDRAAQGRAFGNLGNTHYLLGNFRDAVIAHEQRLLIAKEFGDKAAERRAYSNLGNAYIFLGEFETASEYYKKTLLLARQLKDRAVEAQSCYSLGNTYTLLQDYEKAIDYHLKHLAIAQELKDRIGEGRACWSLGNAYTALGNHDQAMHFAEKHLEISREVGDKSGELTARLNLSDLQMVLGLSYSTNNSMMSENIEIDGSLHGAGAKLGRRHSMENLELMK

T4: Gαi3⋅GDP (human, UniProt P08754 1-354)
T4 chain: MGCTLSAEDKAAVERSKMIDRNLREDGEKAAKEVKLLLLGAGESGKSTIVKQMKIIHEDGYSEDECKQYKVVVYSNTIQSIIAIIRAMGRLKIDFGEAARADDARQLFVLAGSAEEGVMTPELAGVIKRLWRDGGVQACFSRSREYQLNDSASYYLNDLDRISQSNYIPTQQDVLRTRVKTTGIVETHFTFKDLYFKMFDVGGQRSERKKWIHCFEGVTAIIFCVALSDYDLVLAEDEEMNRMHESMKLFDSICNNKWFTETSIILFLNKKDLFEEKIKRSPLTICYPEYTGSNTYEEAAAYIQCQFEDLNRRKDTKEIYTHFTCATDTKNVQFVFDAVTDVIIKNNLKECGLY

T5: AGS3-L (−23–405) (mouse)
T5 chain: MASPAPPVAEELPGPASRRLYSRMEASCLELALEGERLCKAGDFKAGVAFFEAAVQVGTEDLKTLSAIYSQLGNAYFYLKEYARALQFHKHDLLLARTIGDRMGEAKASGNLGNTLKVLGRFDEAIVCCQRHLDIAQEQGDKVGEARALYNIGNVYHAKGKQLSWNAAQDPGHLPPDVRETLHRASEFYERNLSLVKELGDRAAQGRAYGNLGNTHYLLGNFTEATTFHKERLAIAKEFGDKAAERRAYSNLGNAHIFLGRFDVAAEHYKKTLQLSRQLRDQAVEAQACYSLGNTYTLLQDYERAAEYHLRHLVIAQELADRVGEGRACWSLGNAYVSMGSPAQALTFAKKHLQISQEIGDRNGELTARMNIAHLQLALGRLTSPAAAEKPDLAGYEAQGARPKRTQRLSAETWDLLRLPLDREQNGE

T6: FL-AGS3-4E (mouse, UniProt Q6IR34)
T6 sequence (Q6IR34 whole entry, looked up): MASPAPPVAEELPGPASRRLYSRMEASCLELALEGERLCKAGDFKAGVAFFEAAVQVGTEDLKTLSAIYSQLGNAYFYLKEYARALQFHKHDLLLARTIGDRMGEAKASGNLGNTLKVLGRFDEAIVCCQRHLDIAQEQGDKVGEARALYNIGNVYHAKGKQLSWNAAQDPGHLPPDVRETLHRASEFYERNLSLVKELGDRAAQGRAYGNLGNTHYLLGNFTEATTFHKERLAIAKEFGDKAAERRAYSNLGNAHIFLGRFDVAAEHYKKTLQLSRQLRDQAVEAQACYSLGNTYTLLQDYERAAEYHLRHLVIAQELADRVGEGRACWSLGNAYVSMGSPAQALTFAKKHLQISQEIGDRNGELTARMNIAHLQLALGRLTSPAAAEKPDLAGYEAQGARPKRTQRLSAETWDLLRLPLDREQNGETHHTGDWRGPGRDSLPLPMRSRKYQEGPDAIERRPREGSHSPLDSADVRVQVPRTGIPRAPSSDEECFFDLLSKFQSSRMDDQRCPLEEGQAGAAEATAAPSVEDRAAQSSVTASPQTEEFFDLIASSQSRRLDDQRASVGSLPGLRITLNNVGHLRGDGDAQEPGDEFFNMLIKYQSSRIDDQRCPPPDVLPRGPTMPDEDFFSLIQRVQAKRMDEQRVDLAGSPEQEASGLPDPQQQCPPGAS

T7: FL-LGN-4E (mouse, UniProt Q8VDU0)
T7 sequence (Q8VDU0 whole entry, looked up): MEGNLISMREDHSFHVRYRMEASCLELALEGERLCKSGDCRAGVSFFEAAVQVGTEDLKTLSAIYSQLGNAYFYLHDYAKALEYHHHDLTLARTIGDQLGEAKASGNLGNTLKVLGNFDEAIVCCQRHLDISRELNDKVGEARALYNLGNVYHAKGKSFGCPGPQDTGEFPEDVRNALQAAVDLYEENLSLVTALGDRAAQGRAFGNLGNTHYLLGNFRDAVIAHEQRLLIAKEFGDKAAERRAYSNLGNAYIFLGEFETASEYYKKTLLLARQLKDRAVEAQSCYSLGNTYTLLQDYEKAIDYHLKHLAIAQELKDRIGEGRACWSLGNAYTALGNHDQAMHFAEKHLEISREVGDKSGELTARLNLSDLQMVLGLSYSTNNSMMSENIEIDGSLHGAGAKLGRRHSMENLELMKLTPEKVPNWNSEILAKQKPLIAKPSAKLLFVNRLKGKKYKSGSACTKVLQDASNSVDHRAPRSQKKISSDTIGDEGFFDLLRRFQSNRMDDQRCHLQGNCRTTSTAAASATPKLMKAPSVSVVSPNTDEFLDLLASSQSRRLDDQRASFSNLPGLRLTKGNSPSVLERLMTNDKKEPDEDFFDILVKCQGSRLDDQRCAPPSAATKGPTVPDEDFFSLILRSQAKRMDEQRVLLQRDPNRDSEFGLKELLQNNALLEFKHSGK

B1: AGS3-GL1234 (470–631) (domain or fragment)
chain: EECFFDLLSKFQSSRMDDQRCPLEEGQAGAAEATAAPSVEDRAAQSSVTASPQTEEFFDLIASSQSRRLDDQRASVGSLPGLRITLNNVGHLRGDGDAQEPGDEFFNMLIKYQSSRIDDQRCPPPDVLPRGPTMPDEDFFSLIQRVQAKRMDEQRVDLAGSP
B2: LGN-GL1234 (483–650) (domain or fragment)
chain: DEGFFDLLRRFQSNRMDDQRCHLQGNCRTTSTAAASATPKLMKAPSVSVVSPNTDEFLDLLASSQSRRLDDQRASFSNLPGLRLTKGNSPSVLERLMTNDKKEPDEDFFDILVKCQGSRLDDQRCAPPSAATKGPTVPDEDFFSLILRSQAKRMDEQRVLLQRDPNRD

No end group written: not given here.

The target of one assay is T1, AGS3.
Test: not given
For orientation: Kd means a measure of binding affinity in units of concentration. Low readings indicate tighter binding, high ones weaker binding. Consider WGLWGVQESRRLCCAGHDRCKQALLQIGINMMALPGGRHLDSVTLPGQR, for which the equilibrium dissociation constant (Kd) amounted to 2.27 µM.
Turning to WGLWGVQESRRLCCAGHDRCKQALLQIGINMMALPGGRHLDSVTLPGQR (not fully specified; cysteine pairing not given here), the Kd was determined as 2.29 µM.

For a further assay, the target named is T2, LGN.
Test: not given
With WGLWGVQESRRLCCAGHDRCKQALLQIGINMMALPGGRHLDSVTLPGQR, binding was characterised by a dissociation constant (Kd) of 3.92 µM.
WGLWGVQESRRLCCAGHDRCKQALLQIGINMMALPGGRHLDSVTLPGQR (not fully specified; cysteine pairing not given here) showed a Kd of 2.62 µM.

In a further assay the target is T3, LGN-TPR (1–409). Put plainly: ITC.
In turn, NSFYMGTCQDEPEQLDDWNRIAELQQR (domain or fragment) [NuMA (1886–1912)] returned a dissociation constant (Kd) of 0.63 µM.

A further assay addresses T4, Gαi3⋅GDP. Put plainly: ITC.
For the molecule DEDFFSLIQRVQAKRMDEQRVDL (domain or fragment) [AGS3 GL4 motif], binding was characterised by a dissociation constant (Kd) of 0.32 µM.
On the same count and under the same terms, the result for DEGFFDLLRRFQSNRMDDQRCHL (domain or fragment) [LGN GL1 motif] reads 0.33 µM.
The same measure, in the same setting: the result for TEEFFDLIASSQSRRLDDQRASV (domain or fragment) [AGS3 GL2 motif] reads 0.0365 µM; that for TDEFLDLLASSQSRRLDDQRASF (domain or fragment) [LGN GL2 motif], 0.0415 µM.
Take EECFFDLLSKFQSSRMDDQRCPL (domain or fragment) [AGS3 GL1 motif]: the Kd worked out at 0.3 µM.
The molecule GDEFFNMLIKYQSSRIDDQRCPP (domain or fragment) [AGS3 GL3 motif] displayed a Kd of 0.26 µM.

Another assay concerns the target T5, AGS3-L (−23–405). Put plainly: ITC. (In ITC the heat of successive injections is recorded.)
NSFYMGTCQDEPEQLDDWNRIAELQQR (domain or fragment) [NuMA (1886–1912)]: the Kd came to 0.24 µM.

For the next assay, the target named is T6, FL-AGS3-4E. Put plainly: ITC.
With NSFYMGTCQDEPEQLDDWNRIAELQQR (domain or fragment) [NuMA (1886–1912)], the affinity, expressed as Kd, was 0.28 µM.

For the next assay, the target named is T7, FL-LGN-4E. Put plainly: ITC.
In turn, NSFYMGTCQDEPEQLDDWNRIAELQQR (domain or fragment) [NuMA (1886–1912)] registered a dissociation constant Kd of 0.2 µM. That is a sub-micromolar value.

The target of a further assay is T4, Gαi3⋅GDP. Kind of assay: ITC; GDP.
Regarding DEDFFSLILRSQAKRMDEQRVLL (domain or fragment) [LGN GL4 motif], the affinity, expressed as Kd, was 0.2 µM. In other words, the sub-micromolar range.
On to DEDFFSLIQRVQAKRMDEQRVDL (domain or fragment) [AGS3 GL4 motif], for which binding was put at a Kd of 0.33 µM.
The same measure, in the same setting: to DEGFFDLLRRFQSNRMDDQRCHL (domain or fragment) [LGN GL1 motif] belongs 0.33 µM; to B1, 0.28 µM; to TEEFFDLIASSQSRRLDDQRASV (domain or fragment) [AGS3 GL2 motif], 0.04 µM.
The molecule DEDFFDILVKCQGSRLDDQRCAP (domain or fragment) [LGN GL3 motif] registered a Kd of 0.04 µM.
The same measure, in the same setting: the result for B2 reads 0.26 µM; that for TDEFLDLLASSQSRRLDDQRASF (domain or fragment) [LGN GL2 motif], 0.04 µM; that for EECFFDLLSKFQSSRMDDQRCPL (domain or fragment) [AGS3 GL1 motif], 0.3 µM.
Still for that read-out and setting: to GDEFFNMLIKYQSSRIDDQRCPP (domain or fragment) [AGS3 GL3 motif] belongs 0.26 µM.
